The text below walks through data of the supplement of paper PMC9170038.

The subject of the data set is MS2 coat protein. As to the kind of experiment: apparent KD of MS2 coat protein; designed switch direction (-1 OFF switch, 1 ON switch): -1; higher = weaker reporter binding. The method, boiled down:
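On Illumina chips, designed RNA switches with common flanks were made by stalled E. coli RNA polymerase. Titrations with SNAP-549-labelled MS2 coat protein, doubling from 0.7 or 1.5 nM to 3 µM, were done with no input, with 200 uM small-molecule ligand, or with an oligonucleotide input. Apparent KD is the median per design over clusters, from curve fits of normalised cluster fluorescence.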

[1] abbreviates: Eterna round: R95, input ligand: FMN 200 uM.
The mark [2] stands for this setting: Eterna round: R95, input ligand: microRNA oligo, concentration not stated.
Setting [3] is: Eterna round: R95, input ligand: none.
Where [4] appears, read: input ligand: microRNA oligo, concentration not stated.

For the sequence “GAAAACGCAGAGGAUAUUCCAGAUCUAAGCUGCGAAGAAGGCUGCACAUGAGGAUCACCCAUGUGGUCUUUAAA [Maoned] (puzzle: Exclusion 6)”, the “apparent KD of MS2 coat protein” value was 121 nM under setting [1], 12.3 nM under setting [2] and 14.9 nM under setting [3].

On to “GAAAACGCAGAGGAUAUUUCAGAUCAAAGCUGCAAAGAAGGCUGCACAUGAGGAUCACCCAUGUGGUCUUCAAA [jl-ex6-4.02 ViennaUCT mod] (Eterna round: R97, puzzle: Exclusion 6)”, for which the “apparent KD of MS2 coat protein” value (input ligand: FMN 200 uM) came to 386 nM and the “apparent KD of MS2 coat protein” value (input ligand: none) was determined as 20.7 nM.

For the sequence “GAAAACGUAGGAUAUUAAUACUUAUACAUGAGGAUCACCCAUGUUUGGUGGGUUUAAGAAUGAGAAGGGCGAUGAA [EX5 #8] (Eterna round: R97, puzzle: Exclusion 5)”, the “apparent KD of MS2 coat protein” value (input ligand: FMN 200 uM) was found to be 446 nM and the “apparent KD of MS2 coat protein” value (input ligand: none) was 717 nM.

“GAAAAGGUAGAGGAUAUUUCAGGUCAAAGCUGCAAAGAAGGCUGCACAUGAGGAUCACCCAUGUGGUCUUAAAA [Mod of Quesina 7 - Jieux - Exclusion 6] (Eterna round: R97, puzzle: Exclusion 6)”: the “apparent KD of MS2 coat protein” value is, setting by setting: (input ligand: FMN 200 uM) 90.4 nM; (input ligand: none) 25.7 nM.

Consider “GAAAAGGUAGGAUAUACGAAAAAAAAGGGUAGAAAAAAAAAACAUGAGGAUCACCCAUGUAGAAGGACCAAAAG [salish99_ex2_r3_059] (Eterna round: R96, puzzle: Exclusion 2)”, for which, under setting [4], the “apparent KD of MS2 coat protein” value came to 34.7 nM.

As to “GAAAAGGUAGGAUAUACGAAAAAAAAGGGUAGAAAAAAAAAACAUGAGGAUCACCCAUGUAGAAGGACCAAAAG [salish99_ex2_r3_059] (puzzle: Exclusion 2)”, the “apparent KD of MS2 coat protein” value reads like this: under setting [1], 134 nM; under setting [2], 26.6 nM; under setting [3], 13.7 nM.

Turning to “GAAAAGGUAGGAUAUACGAAAAAAAAGGGUAGAAAAGAAACACAUGAGGAUCACCCAUGUAGAAGGACCAAAAG [salish99_ex2_r3_016] (puzzle: Exclusion 2)”, the “apparent KD of MS2 coat protein” value is, setting by setting: under setting [1], 78 nM; under setting [2], 27.8 nM; under setting [3], 21.5 nM.

Regarding “GAAAAGGUAGGAUAUACGAAAAAGAAGGGUAGAAAAAAAACACAUGAGGAUCACCCAUGUAGAAGGACCAAAAG [salish99_ex2_r3_026] (puzzle: Exclusion 2)”, the “apparent KD of MS2 coat protein” value is, setting by setting: under setting [1], 56 nM; under setting [2], 24.1 nM; under setting [3], 21 nM.

With “GAAAAGGUAGGAUAUACGAAAACAAAGGGUAGAAACAAAACACAUGAGGAUCACCCAUGUAGAAGGACCAAAAG [salish99_ex2_r3_097] (Eterna round: R96, puzzle: Exclusion 2)”, the “apparent KD of MS2 coat protein” value under setting [4] came out at 30.8 nM.

Turning to “GAAAAGGUAGGAUAUACGAAAACAAAGGGUAGAAACAAAACACAUGAGGAUCACCCAUGUAGAAGGACCAAAAG [salish99_ex2_r3_097] (puzzle: Exclusion 2)”, the “apparent KD of MS2 coat protein” value runs as follows: under setting [1], 164 nM; under setting [2], 25.6 nM; under setting [3], 25.4 nM.

For “GAAAAGGUAGGAUAUACGAAAAGAAAGGGUAGAGAAGAAACACAUGAGGAUCACCCAUGUAGAAGGACCAAAAG [salish99_ex2_r3_098] (puzzle: Exclusion 2)”, the “apparent KD of MS2 coat protein” value was 96.4 nM under setting [1], 26.4 nM under setting [2] and 28.4 nM under setting [3].

For “GAAAAGGUAGGAUAUACGAAAAUAAAGGGUAGAAAUAAAACACAUGAGGAUCACCCAUGUAGAAGGACCAAAAG [salish99_ex2_r3_096] (puzzle: Exclusion 2)”, the “apparent KD of MS2 coat protein” value came out at 70.6 nM under setting [1], 23.3 nM under setting [2] and 23.2 nM under setting [3].

In the case of “GAAAAGGUAGGAUAUACGAAGAAAAAGGGUAGAAAAAAAACACAUGAGGAUCACCCAUGUAGAAGGACCAAAAG [salish99_ex2_r3_028] (puzzle: Exclusion 2)”, the “apparent KD of MS2 coat protein” value runs as follows: under setting [1], 54.4 nM; under setting [2], 23.8 nM; under setting [3], 20.2 nM.

“GAAAAGGUAGGAUAUACGAGAAAAAAGGGUAGAAAAAAAACACAUGAGGAUCACCCAUGUAGAAGGACCAAAAG [salish99_ex2_r3_029] (puzzle: Exclusion 2)”: the “apparent KD of MS2 coat protein” value under setting [1] was 35.5 nM, the “apparent KD of MS2 coat protein” value under setting [2] is 23.1 nM and the “apparent KD of MS2 coat protein” value under setting [3] stood at 21.3 nM.

“GAAAAGGUAGGAUAUACGAUAAUAAAGGGUAGAUAAUAAACACAUGAGGAUCACCCAUGUAGAAGGACCAAAAG [salish99_ex2_r3_103] (puzzle: Exclusion 2)”: the “apparent KD of MS2 coat protein” value is 127 nM under setting [1], 35 nM under setting [2] and 35.2 nM under setting [3].

Consider “GAAAAGUGAGGAUAUGGUAAAAAAAAAAGAAAAAAAAAACUCCAGAAGGCACAUGAGGAUCACCCAUGUAAAAG [salish99_ex4_r3_003] (puzzle: Exclusion 4)”, for which the “apparent KD of MS2 coat protein” value under setting [1] was determined as 41.9 nM, the “apparent KD of MS2 coat protein” value under setting [2] was 19.5 nM and the “apparent KD of MS2 coat protein” value under setting [3] turned out to be 58.6 nM.

On to “GAAAAGUGAGGAUAUGGUAAAAGAAAAAGAAAAAAAAAACUCCAGAAGGCACAUGAGGAUCACCCAUGUAAAAG [salish99_ex4_r3_004] (puzzle: Exclusion 4)”, for which the “apparent KD of MS2 coat protein” value is, setting by setting: under setting [1], 33.5 nM; under setting [2], 24.5 nM; under setting [3], 24 nM.

For the sequence “GAAAAGUGAGGAUAUGGUAAAAGAAAAAGAAAAAGAAAACUCCAGAAGGCACAUGAGGAUCACCCAUGUGAAAG [salish99_ex4_r3_006] (puzzle: Exclusion 4)”, the “apparent KD of MS2 coat protein” value reads like this: under setting [1], 15.7 nM; under setting [2], 16.2 nM; under setting [3], 15.8 nM.

For the sequence “GAAACGGGUGCACCUCAGUCACAUGAGGAUCACCCAUGUUCUGAGGAUAUGCAUCCAAACGGAACGCAGAAGGCGGAACGUAAC [Beisoner] (Eterna round: R96, puzzle: Exclusion NG 3)”, the “apparent KD of MS2 coat protein” value runs as follows: (input ligand: FMN 200 uM) 14.6 nM; under setting [4], 14 nM; (input ligand: none) 16.4 nM.

Regarding “GAAAUACAUGAGGAUCACCCAUGUGAGGAUAUGCUAUGGAAAUAAAAAAUAAAACAUAGCAGAAGGUACAAAAG [Mat - Exclusion 1 - Eli mod - D43] (Eterna round: R96, puzzle: Exclusion 1)”, the “apparent KD of MS2 coat protein” value under setting [4] was determined as 50.9 nM.

Take “GAACAAGCGUGAGGCUCGUCUUAAAGAGCCUCAUGAAAAACAUGAGGAUCACCCAUGUAAAAUGAUCGAAAGAUCAA [Mat - Sensor v2 - var 2 - Mod - D131] (Eterna round: R96, puzzle: Sensor v2, turn-off variant 2)”: the “apparent KD of MS2 coat protein” value is, setting by setting: (input ligand: FMN 200 uM) 14.9 nM; under setting [4], 12.7 nM; (input ligand: none) 16.9 nM.

Take “GAACCAUGAGGAUAUUCUGAUCCUUACAUGAGGAUCACCCAUGUGAGUACAAAAGUACUCGAAGAAGGCAUGGUUC [Omei Ex5 B1] (Eterna round: R97, puzzle: Exclusion 5)”: the “apparent KD of MS2 coat protein” value came out at 616 nM (input ligand: FMN 200 uM) and 2130 nM (input ligand: none).

On to “GAACUGAAGCUUUGCUUUAGUCGUACAUGAGGAUCACCCAUGUAGGAUAUGGUAGGCUUUGCUUACUAGAAGGACAGAGUGAUC [Mat - Exclusion NG 3 - Mod of JL - D68] (Eterna round: R96, puzzle: Exclusion NG 3)”, for which the “apparent KD of MS2 coat protein” value by setting is: (input ligand: FMN 200 uM) 61.8 nM; under setting [4], 73.8 nM; (input ligand: none) 113 nM.
